Patent US20020127539A1, “Assays for identifying receptors having alterations in signaling” (priority 2000, published 2002)
Substitutions are numbered along the chain they refer to.

T1: CCK-BR (Homo sapiens, UniProt P32239, L325E)
T1 sequence (P32239 1-447 L325E): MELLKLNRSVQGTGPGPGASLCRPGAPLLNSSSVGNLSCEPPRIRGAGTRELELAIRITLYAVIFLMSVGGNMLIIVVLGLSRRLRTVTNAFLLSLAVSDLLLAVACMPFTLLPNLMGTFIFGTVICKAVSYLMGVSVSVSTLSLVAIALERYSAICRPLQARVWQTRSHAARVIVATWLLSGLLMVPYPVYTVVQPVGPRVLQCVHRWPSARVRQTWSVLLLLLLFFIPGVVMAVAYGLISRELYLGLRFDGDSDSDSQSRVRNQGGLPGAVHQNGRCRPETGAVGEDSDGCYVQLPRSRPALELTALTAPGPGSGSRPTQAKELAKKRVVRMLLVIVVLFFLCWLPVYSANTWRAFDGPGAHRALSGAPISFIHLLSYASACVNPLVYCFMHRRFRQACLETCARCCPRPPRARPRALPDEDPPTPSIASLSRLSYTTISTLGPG

B1: Asn150Ala rat mu opioid receptor: rat mu opioid receptor with Asn to Ala point mutation at position 150 of SEQ ID NO: 1 (protein, UniProt P33535 1-398, looked up, variant N150A)
Mu-type opioid receptor: MDSSTGPGNTSDCSDPLAQASCSPAPGSWLNLSHVDGNQSDPCGLNRTGLGGNDSLCPQTGSPSMVTAITIMALYSIVCVVGLFGNFLVMYVIVRYTKMKTATNIYIFNLALADALATSTLPFQSVNYLMGTWPFGTILCKIVISIDYYAMFTSIFTLCTMSVDRYIAVCHPVKALDFRTPRNAKIVNVCNWILSSAIGLPVMFMATTKYRQGSIDCTLTFSHPTWYWENLLKICVFIFAFIMPVLIITVCYGLMILRLKSVRMLSGSKEKDRNLRRITRMVLVVVAVFIVCWTPIHIYVIIKALITIPETTFQTVSWHFCIALGYTNSCLNPVLYAFLDENFKRCFREFCIPTSSTIEQQNSTRVRQNTREHPSTANTVDRTNHQLENLEAETAPLP
B2: wild-type rat mu opioid receptor: wild-type rat mu opioid receptor expressed from an expression vector in HEK293 cells (protein, UniProt P33535 1-398, looked up)
Mu-type opioid receptor: B1 Mu-type opioid receptor with A150N
B3: Leu325Glu CCK-BR mutant: human CCK-BR with point mutation Leu325Glu, constitutively active (protein, UniProt P32239 1-447, looked up, variant L325E)
Gastrin/cholecystokinin type …: T1 sequence (P32239 1-447 L325E)

Assays:
[1] = target: T2, rat mu opioid receptor (Rattus norvegicus, UniProt P33535, N150A); assay: CRE-Luc luciferase reporter assay with forskolin stimulation; format: cell-based; conditions: 0.5 μM forskolin; a decrease means more Gαi signaling
T2 construct: expressed in transfected cells; host or cells: HEK293
Description: Similarly, a constitutively active rat mu opioid receptor was identified using a reporter construct sensitive to Gαi coupling (see FIG. 3). The response element employed in this assay was the cAMP-response element (CRE), which is sensitive to Gαi mediated changes in intracellular levels of cAMP. Signaling through the rat mu opioid receptor via Gαi inhibits adenylate cyclase, causing a decrease in intracellular cAMP. Therefore, an increase in rat mu opioid receptor signaling induces a decrease in CRE mediated reporter activity.
Prior to the present invention, Gαi-mediated decreases in intracellular cAMP were measured by (1) stimulating cells with forskolin, which causes receptor-independent activation of adenylate cyclase and generates an intracellular pool of cAMP; (2) stimulating the cells with ligand; and (3) measuring the ligand-induced, receptor-dependent Gαi-mediated decrease in the intracellular cAMP pool (e.g., using a radioimmunoassay (e.g., New England Nuclear, Boston, Mass.)). […] The basal (and ligand-induced) level of receptor activity was then measured using a standard luciferase assay (see FIG. 3). Coexpression of the receptor of interest with a luciferase reporter gene construct allows one to measure light emission as a readout for basal signaling.

[2] = target: T2, rat mu opioid receptor; assay: SRE-Luc/Gq5i luciferase reporter assay in HEK293 cells; format: cell-based
Protocol: (§1) Reagents & Solutions: The cell culture media used in the assays described below was Gibco BRL #12100-046. This media was made according to manufacturer's recipe, pH adjusted to 7.2, filtered (0.22 micron pore), and supplemented with 1% Pen/Strep (Gibco #15140-122; 100% penicillin G 10,000 units/ml, and streptomycin 10,000 μg/ml) and 10% fetal bovine serum. Cell culture media lacking 10% fetal bovine serum was also generated. DNA used in the transfection experiments was purified and quantitated by measuring the absorbance at OD260. A LucLite Luciferase Assay Kit (Packard) was used to quantitate luciferase activity. Transfections were carried out using LipofectAMINE Reagent (Gibco #18324-012).
(§2) Constitutive activity of the Asn150Ala mutant rat mu opioid receptor was assessed using a luciferase assay. The rat mu opioid receptor is a Gαi coupled receptor. Therefore we chose to use the Gq5i reporter system, described in detail above (Broach and Thorner, supra), which switches the signaling pathway from Gαi to Gαq for reliable positive readout. HEK293 cells were transfected with the reporter construct SRE-Luc, an expression vector containing nucleic acid encoding Gq5i (Broach and Thorner, supra), and an expression vector containing nucleic acid encoding either the wild-type or the Asn150Ala mutant rat mu opioid receptor. Basal and ligand-stimulated luciferase activity was measured. The ligand used in this assay was [D-Ala^2-MePhe^4, Gly-ol^5]enkephalin] (DAMGO). As a negative control, HEK293 cells were transfected with pcDNA1 (empty vector DNA), SRE-Luc, and the expression vector containing nucleic acid encoding Gq5i (Broach and Thorner, supra).
(§3) The luciferase assay was carried out as follows. On day 1, HEK293 cells in a T75 flask were washed with 15 ml serum-free media (or PBS), trypsinized with 5 ml 0.05% trypsin-EDTA (Gibco #25300-062), incubated at 37° C. for 3 minutes at which time 6-7 ml complete HEK293 media (Gibco #12100-046) and 10% Fetal Bovine Serum (Intergen #1050-90) were added. Thereafter, cells were collected in 50 ml centrifuge tubes, pelleted at 800-900 rpm (RCF ˜275), and resuspend in 20 ml complete media. The cells were counted using a haemocytometer and diluted to 85,000 cells/ml in complete media. Using a repeat pipettor or cell plater, 100 μl of cells were added to each well of a Primaria 96-well plate (Falcon #353872). Cells were then incubated at 37° C., 5% CO2 until use at 48 hours.
(§4) On day 3, cells were transfected using LipofectAMINE™ according to the manufacturer's protocol (Gibco #18324-012, Rockville, Md.).
(§5) On day 4, cells were stimulated as follows. Ligands for the receptor, either DAMGO or a non-peptide ligand (e.g., naltrexene or nalonin), were diluted to a desired concentration in serum-free media containing 0.15 mM PMSF (or other protease inhibitor(s)). The transfection media was then completely removed from cells and 50-100 μl stimulation media (i.e., media containing candidate ligands or the corresponding ligand free solvent) was added to each well. The cells were incubated for the desired time (standard is overnight) at 37° C., 5% CO2, although the optimal stimulation time may vary depending on the particular receptor used. The optimal incubation time may be determined systematically by testing a range of incubation times and determining which one yields the highest level of stimulation. For concomitant assessment of two ligands (e.g., ligand induced inhibition of forskolin stimulated CRE activity) each stimulus is prepared at two times the desired final concentration and mixed in equal volumes prior to addition to cells.
(§6) On day 5, an assay for luciferase expression was carried out according to the manufacturer's instructions (Packard, Meridin, Conn.)

[3] = test system: rat mu opioid receptor; assay: as above; format: cell-based; conditions: HEK293, SRE + Gq5i; for Average Ligand Stimulated Activity (Light Emission): ligand DAMGO; for Average Basal Activity (Light Emission): no ligand
Protocol: as §1, §2, §3, §4, §5, §6

[4] = target: T1, CCK-BR; parameters: expressed in transfected cells; host or cells: COS-7; conditions: COS-7, absence of agonist; cited from earlier work
[5] = target: T1, CCK-BR; assay: SMS-Luc luciferase reporter assay in HEK293 cells; format: cell-based; parameters: expressed in transfected cells; host or cells: HEK293; conditions: FIG. 2
Description: HEK293 cells were transfected (as described above) with SMS-Luc and an expression vector encoding any one of pcDNA1, wild-type CCK-BR, or Leu325Glu CCK-BR.

Molecule | basal CRE-Luc reporter activity compared to wild-type receptor [1] | basal activity relative to the maximal level of ligand-stimulated second messenger signaling [2] | stimulation of basal level activity (increase in basal activity vs wild-type) ([2]; HEK293, SRE + Gq5i, listed as Asn150Ala mutant mu opioid receptor) | Average Ligand Stimulated Activity (Light Emission) [3] | Average Basal Activity (Light Emission) [3] | constitutive production of inositol phosphates [4] | basal level activity compared to wild-type CCK-BR [5]
B1 | reduction in basal activity | exceeded 50% | approximately 6.5 fold | 86,996 | *56,498 |  | 
B2 |  |  |  | 87,461 | 8,436 |  | 
B3 |  |  |  |  |  | levels exceeding wild-type CCK-BR | increased basal level activity
